Assay [1] addresses T1, cyno PD-1 expressed on cells (cynomolgus).
T1 construct: whole, on cells; also called cyPD-1; cynomolgus PD-1
In words: cell binding titration, CHO cells expressing cyno PD-1.

The target of assay [2] is T2, human PD-1 expressed on cells (human, UniProt Q15116 25-288).
T2 construct: also called huPD-1; CHO cells expressing human PD-1
The experiment in a line: cell binding titration, CHO cells expressing human PD-1.

The target in assay [3] is T3, murine PD-1 expressed on cells (murine, UniProt Q02242 25-288).
T3 construct: whole, on cells; also called muPD-1; mouse PD-1
T3 sequence (looked up): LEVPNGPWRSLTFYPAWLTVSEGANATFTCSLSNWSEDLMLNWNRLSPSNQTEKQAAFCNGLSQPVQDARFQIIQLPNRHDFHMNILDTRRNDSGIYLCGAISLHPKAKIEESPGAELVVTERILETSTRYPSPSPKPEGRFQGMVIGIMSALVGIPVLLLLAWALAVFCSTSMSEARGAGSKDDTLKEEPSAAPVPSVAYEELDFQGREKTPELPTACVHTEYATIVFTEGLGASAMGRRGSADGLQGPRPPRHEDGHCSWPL
In words: cell binding titration, CHO cells expressing murine PD-1.

Assay [4] deals with T4, purified recombinant His tagged human PD-1 (human, UniProt Q15116 25-170).
T4 construct: not shown: His tag
T4 sequence (Q15116 25-170 limits assumed): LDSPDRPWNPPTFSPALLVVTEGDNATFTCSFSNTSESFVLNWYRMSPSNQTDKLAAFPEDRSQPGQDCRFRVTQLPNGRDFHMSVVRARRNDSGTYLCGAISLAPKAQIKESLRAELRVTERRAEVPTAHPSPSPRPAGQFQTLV
In words: SPR (Carterra MX96), antibody on chip, His-tagged human PD-1 injected.

Assay [5] addresses T4, purified recombinant His tagged human …. The experiment in a line: SPR KD; fold improvement over parent mAb25.
The target in assay [6] is T1, cyno PD-1 expressed on cells. The experiment in a line: cell binding EC50 on CHO-cyno PD-1; fold improvement over parent mAb25.
Assay [7] has as its target T2, human PD-1 expressed on cells. In words: cell binding EC50 on CHO-human PD-1; fold improvement over parent mAb25.

We go through twelve molecules from US12503511 (COMPASS THERAPEUTICS, dated 2025).

T2 sequence (Q15116 25-288 limits assumed): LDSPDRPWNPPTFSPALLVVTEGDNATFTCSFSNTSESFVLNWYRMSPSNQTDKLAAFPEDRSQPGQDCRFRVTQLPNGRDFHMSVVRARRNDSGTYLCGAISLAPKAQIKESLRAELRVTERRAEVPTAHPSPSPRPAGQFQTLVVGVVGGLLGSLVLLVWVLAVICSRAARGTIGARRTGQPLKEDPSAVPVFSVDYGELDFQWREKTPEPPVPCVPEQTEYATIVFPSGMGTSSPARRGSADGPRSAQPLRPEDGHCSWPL

B1: mAb25 (antibody, V domains shown)
VH: EVQLLESGGGLVQPGGSLRLSCAASGFTFSDYAMSWVRQAPGKGLEWVSAISNSGTYTYYADSVKGRFTISRDNSKNTLYLQMNSLRAEDTAVYYCARGLDFIVGATGNDYWGQGTLVTVSS
VL: not shown
notes: also called parent PD-1 antibody mAb25
As for B1, the EC50 (usually the concentration at which the effect is half-maximal) in assay [1] is 8.59 nM; in assay [2], 0.915 nM. In assay [3], the binding result was “no binding”. Besides, the Kd – broadly, a measure of binding affinity in units of concentration – in assay [4] came to 240 nM.

B2: mAb35 (antibody, V domains shown)
VH: EVQLLESGGGLVQPGGSLRLSCAASGFTFSGYAMSWVRQAPGKGLEWVSAISNSGTYTYYADSVKGRFTISRDNSKNTLYLQMNSLRAEDTAVYYCARGLDFIVGRTGNDYWGQGTLVTVSS
VL: not shown
Take B2: the “Fold improvement over Parent” value worked out at 27 fold in assay [5], 3.2 fold in assay [6] and 0.6 fold in assay [7]. Moreover, the values for the EC50 in assay [1] and in assay [2] were 2.66 nM and 1.64 nM, respectively. Moreover, the Kd in assay [4] stood at 9 nM.

B3: mAb31 (antibody, V domains shown)
VH: EVQLLESGGGLVQPGGSLRLSCAASGFTFRSYAMSWVRQAPGKGLEWVSAISNSGTYTYYADSVKGRFTISRDNSKNTLYLQMNSLRAEDTAVYYCARGLDFIVGYTGNDYWGQGTLVTVSS
VL: not shown
With B3, the “Fold improvement over Parent” value in assay [5] was 44 fold; in assay [6] it was 4.5 fold; in assay [7], 0.5 fold. Besides, the EC50 came to 1.9 nM in assay [1], 1.71 nM in assay [2] and 1.87 nM in assay [3]. In addition, in assay [4], the Kd came out at 5.5 nM.

B4: mAb36 (antibody, V domains shown)
VH: EVQLLESGGGLVQPGGSLRLSCAASGFTFSSYAMNWVRQAPGKGLEWVSAISNSGTYTYYADSVKGRFTISRDNSKNTLYLQMNSLRAEDTAVYYCARGLDFIVGRTGNDYWGQGTLVTVSS
VL: not shown
B4: the “Fold improvement over Parent” value amounted to 31 fold in assay [5], 7.2 fold in assay [6] and 0.9 fold in assay [7]. Further, the EC50 was 1.19 nM in assay [1] and 1.01 nM in assay [2]. Besides, the Kd in assay [4] is 7.7 nM.

B5: mAb34 (antibody, V domains shown)
VH: EVQLLESGGGLVQPGGSLRLSCAASGFTFSNYAMSWVRQAPGKGLEWVSAISNSGTYTYYADSVKGRFTISRDNSKNTLYLQMNSLRAEDTAVYYCARGLDFIVGATGNDYWGQGTLVTVSS
VL: not shown
With B5, the “Fold improvement over Parent” value in assay [5] was determined as 33 fold; in assay [6], 6.5 fold; in assay [7], 0.2 fold. Also, the EC50 in assay [1] came out at 1.33 nM; in assay [2], 3.87 nM; in assay [3], 20.5 nM. Further, the Kd in assay [4] came to 7.2 nM.

B6: mAb33 (antibody, V domains shown)
VH: EVQLLESGGGLVQPGGSLRLSCAASGFTFNSYAMSWVRQAPGKGLEWVSAISNSGTYTYYADSVKGRFTISRDNSKNTLYLQMNSLRAEDTAVYYCARGLDFIVGYTGNDYWGQGTLVTVSS
VL: not shown
Take B6: the figures for the “Fold improvement over Parent” value in assay [5], in assay [6] and in assay [7] were 34 fold, 6.5 fold and 0.9 fold, respectively. Also, the EC50 in assay [1] stood at 1.33 nM; in assay [2], 1.04 nM; in assay [3], 10.4 nM. Also, in assay [4], the Kd stood at 7 nM.

B7: mAb29 (antibody, V domains shown)
VH: EVQLLESGGGLVQPGGSLRLSCAASGFTFSNYALSWVRQAPGKGLEWVSAISNSGTYTYYADSVKGRFTISRDNSKNTLYLQMNSLRAEDTAVYYCARGLDFIVGYTGNDYWGQGTLVTVSS
VL: not shown
For B7, the “Fold improvement over Parent” value stood at 28 fold in assay [5], 5 fold in assay [6] and 0.7 fold in assay [7]. For the same molecule, the EC50 in assay [1] is 1.73 nM; in assay [2], 1.27 nM; in assay [3], 2.14 nM. In addition, the Kd in assay [4] worked out at 8.6 nM.

B8: mAb27 (antibody, V domains shown)
VH: EVQLLESGGGLVQPGGSLRLSCAASGFTFSSYAMSWVRQAPGKGLEWVSAISNSGTYTYYADSVKGRFTISRDNSKNTLYLQMNSLRAEDTAVYYCARGLDFIVGYTGNDYWGQGTLVTVSS
VL: not shown
On to B8, for which the “Fold improvement over Parent” value in assay [5] was determined as 104 fold; in assay [6] it was 5.6 fold; in assay [7] it was 0.5 fold. For the same molecule, the EC50 stood at 1.53 nM in assay [1], 1.75 nM in assay [2] and 6.14 nM in assay [3]. The Kd in assay [4] stood at 2.3 nM.

B9: mAb32 (antibody, V domains shown)
VH: EVQLLESGGGLVQPGGSLRLSCAASGFTFGRYAMSWVRQAPGKGLEWVSAISNSGTYTYYADSVKGRFTISRDNSKNTLYLQMNSLRAEDTAVYYCARGLDFIVGYTGNDYWGQGTLVTVSS
VL: not shown
B9: the “Fold improvement over Parent” value came out at 114 fold in assay [5], 6.7 fold in assay [6] and 0.6 fold in assay [7]. Moreover, the figures for the EC50 in assay [1], in assay [2] and in assay [3] were 1.29 nM, 1.51 nM and 2.8 nM, respectively. In addition, the Kd in assay [4] was found to be 2.1 nM.

B10: mAb26 (antibody, V domains shown)
VH: EVQLLESGGGLVQPGGSLRLSCAASGFTFSDYAMSWVRQAPGKGLEWVSAISNSGTYTYYADSVKGRFTISRDNSKNTLYLQMNSLRAEDTAVYYCARGLDFIVGYTGNDYWGQGTLVTVSS
VL: not shown
Take B10: the “Fold improvement over Parent” value in assay [5] was 24 fold; in assay [6] it was 5.6 fold; in assay [7], 0.2 fold. Also, the values for the EC50 in assay [1], in assay [2] and in assay [3] were 1.54 nM, 3.74 nM and 17.9 nM, respectively. In addition, the Kd in assay [4] stood at 10 nM.

B11: mAb30 (antibody, V domains shown)
VH: EVQLLESGGGLVQPGGSLRLSCAASGFTFSAYAMNWVRQAPGKGLEWVSAISNSGTYTYYADSVKGRFTISRDNSKNTLYLQMNSLRAEDTAVYYCARGLDFIVGYTGNDYWGQGTLVTVSS
VL: not shown
With B11, the figures for the “Fold improvement over Parent” value in assay [5], in assay [6] and in assay [7] were 77 fold, 4.2 fold and 0.3 fold, respectively. Besides, the 50% effective concentration (EC50) stood at 2.05 nM in assay [1], 2.77 nM in assay [2] and 4.05 nM in assay [3]. In addition, the Kd in assay [4] is 3.1 nM.

B12: mAb37 (antibody, V domains shown)
VH: EVQLLESGGGLVQPGGSLRLSCAASGFTFRSYAMSWVRQAPGKGLEWVSAISNSGTYTYYADSVKGRFTISRDNSKNTLYLQMNSLRAEDTAVYYCARGLDFIVGRTGNDYWGQGTLVTVSS
VL: not shown
In the case of B12, the “Fold improvement over Parent” value was determined as 17 fold in assay [5], 7.9 fold in assay [6] and 1.2 fold in assay [7]. Besides, the EC50 in assay [1] was found to be 1.09 nM; in assay [2], 0.75 nM; in assay [3] it was 0.942 nM. In addition, the Kd in assay [4] is 14 nM.
